Assay results reported in patent US20140213513A1 (Sanofi, priority 2012, published 2014).
*1 amine or outer side, *2 acyl side, *3 side chain or, on linkers, in order; H or OH if unused. Where no end group is shown, it is not given here. Side-chain parts run from the residue outwards. [ ]: non-standard residue; d: D form. The star is where a group is joined. γGlu = O=C(O)[C@H](CCC(=O)[*:2])N[*:1]; Stearoyl = CCCCCCCCCCCCCCCCCC(=O)*; Palmitoyl = CCCCCCCCCCCCCCCC(=O)*; Aib = CC(C)(N)C(=O)O

T1: human GIP receptor (human, UniProt P48546 22-466)
T1 sequence (looked up): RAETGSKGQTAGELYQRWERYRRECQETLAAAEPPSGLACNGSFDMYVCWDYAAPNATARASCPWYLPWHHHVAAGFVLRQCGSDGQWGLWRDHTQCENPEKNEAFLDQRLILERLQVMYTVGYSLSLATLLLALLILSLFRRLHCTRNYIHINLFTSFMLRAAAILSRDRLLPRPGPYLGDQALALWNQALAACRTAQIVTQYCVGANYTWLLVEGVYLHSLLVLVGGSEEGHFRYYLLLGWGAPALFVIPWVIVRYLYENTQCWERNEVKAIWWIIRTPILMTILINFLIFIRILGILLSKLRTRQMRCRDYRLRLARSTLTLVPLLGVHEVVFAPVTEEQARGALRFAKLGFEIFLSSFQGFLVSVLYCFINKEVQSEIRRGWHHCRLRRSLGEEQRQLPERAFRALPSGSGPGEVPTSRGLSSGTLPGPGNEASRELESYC

B1: exendin-4 peptide analogue SEQ ID NO: 34 (peptide)
peptide: Y[Aib]QGTFTSDLSIQK([γGlu-Palmitoyl])DSRAAQDFIEWLKRGGPSSGAPPPS-NH2
modifications: N-terminus assumed
SMILES: CCCCCCCCCCCCCCCC(=O)N[C@@H](CCC(=O)NCCCC[C@H](NC(=O)[C@H](CCC(N)=O)NC(=O)[C@@H](NC(=O)[C@H](CO)NC(=O)[C@H](CC(C)C)NC(=O)[C@H](CC(=O)O)NC(=O)[C@H](CO)NC(=O)[C@@H](NC(=O)[C@H](Cc1ccccc1)NC(=O)[C@@H](NC(=O)CNC(=O)[C@H](CCC(N)=O)NC(=O)C(C)(C)NC(=O)[C@@H](N)Cc1ccc(O)cc1)[C@@H](C)O)[C@@H](C)O)[C@@H](C)CC)C(=O)N[C@@H](CC(=O)O)C(=O)N[C@@H](CO)C(=O)N[C@@H](CCCNC(=N)N)C(=O)N[C@@H](C)C(=O)N[C@@H](C)C(=O)N[C@@H](CCC(N)=O)C(=O)N[C@@H](CC(=O)O)C(=O)N[C@@H](Cc1ccccc1)C(=O)N[C@H](C(=O)N[C@@H](CCC(=O)O)C(=O)N[C@@H](Cc1c[nH]c2ccccc12)C(=O)N[C@@H](CC(C)C)C(=O)N[C@@H](CCCCN)C(=O)N[C@@H](CCCNC(=N)N)C(=O)NCC(=O)NCC(=O)N1CCC[C@H]1C(=O)N[C@@H](CO)C(=O)N[C@@H](CO)C(=O)NCC(=O)N[C@@H](C)C(=O)N1CCC[C@H]1C(=O)N1CCC[C@H]1C(=O)N1CCC[C@H]1C(=O)N[C@@H](CO)C(N)=O)[C@@H](C)CC)C(=O)O
B2: exendin-4 peptide analogue SEQ ID NO: 35 (peptide)
peptide: Y[Aib]QGTFTSDLSIQK([γGlu-Palmitoyl])DERAAKDFIEWLKAGGPSSGAPPPS-NH2
modifications: N-terminus assumed
SMILES: CCCCCCCCCCCCCCCC(=O)N[C@@H](CCC(=O)NCCCC[C@H](NC(=O)[C@H](CCC(N)=O)NC(=O)[C@@H](NC(=O)[C@H](CO)NC(=O)[C@H](CC(C)C)NC(=O)[C@H](CC(=O)O)NC(=O)[C@H](CO)NC(=O)[C@@H](NC(=O)[C@H](Cc1ccccc1)NC(=O)[C@@H](NC(=O)CNC(=O)[C@H](CCC(N)=O)NC(=O)C(C)(C)NC(=O)[C@@H](N)Cc1ccc(O)cc1)[C@@H](C)O)[C@@H](C)O)[C@@H](C)CC)C(=O)N[C@@H](CC(=O)O)C(=O)N[C@@H](CCC(=O)O)C(=O)N[C@@H](CCCNC(=N)N)C(=O)N[C@@H](C)C(=O)N[C@@H](C)C(=O)N[C@@H](CCCCN)C(=O)N[C@@H](CC(=O)O)C(=O)N[C@@H](Cc1ccccc1)C(=O)N[C@H](C(=O)N[C@@H](CCC(=O)O)C(=O)N[C@@H](Cc1c[nH]c2ccccc12)C(=O)N[C@@H](CC(C)C)C(=O)N[C@@H](CCCCN)C(=O)N[C@@H](C)C(=O)NCC(=O)NCC(=O)N1CCC[C@H]1C(=O)N[C@@H](CO)C(=O)N[C@@H](CO)C(=O)NCC(=O)N[C@@H](C)C(=O)N1CCC[C@H]1C(=O)N1CCC[C@H]1C(=O)N1CCC[C@H]1C(=O)N[C@@H](CO)C(N)=O)[C@@H](C)CC)C(=O)O
B3: exendin-4 peptide analogue SEQ ID NO: 30 (peptide)
peptide: Y[Aib]EGTFTSDLSKQK([γGlu-Palmitoyl])DKRAAQDFIEWLKNGGPSSGAPPPS-NH2
modifications: N-terminus assumed
SMILES: CCCCCCCCCCCCCCCC(=O)N[C@@H](CCC(=O)NCCCC[C@H](NC(=O)[C@H](CCC(N)=O)NC(=O)[C@H](CCCCN)NC(=O)[C@H](CO)NC(=O)[C@H](CC(C)C)NC(=O)[C@H](CC(=O)O)NC(=O)[C@H](CO)NC(=O)[C@@H](NC(=O)[C@H](Cc1ccccc1)NC(=O)[C@@H](NC(=O)CNC(=O)[C@H](CCC(=O)O)NC(=O)C(C)(C)NC(=O)[C@@H](N)Cc1ccc(O)cc1)[C@@H](C)O)[C@@H](C)O)C(=O)N[C@@H](CC(=O)O)C(=O)N[C@@H](CCCCN)C(=O)N[C@@H](CCCNC(=N)N)C(=O)N[C@@H](C)C(=O)N[C@@H](C)C(=O)N[C@@H](CCC(N)=O)C(=O)N[C@@H](CC(=O)O)C(=O)N[C@@H](Cc1ccccc1)C(=O)N[C@H](C(=O)N[C@@H](CCC(=O)O)C(=O)N[C@@H](Cc1c[nH]c2ccccc12)C(=O)N[C@@H](CC(C)C)C(=O)N[C@@H](CCCCN)C(=O)N[C@@H](CC(N)=O)C(=O)NCC(=O)NCC(=O)N1CCC[C@H]1C(=O)N[C@@H](CO)C(=O)N[C@@H](CO)C(=O)NCC(=O)N[C@@H](C)C(=O)N1CCC[C@H]1C(=O)N1CCC[C@H]1C(=O)N1CCC[C@H]1C(=O)N[C@@H](CO)C(N)=O)[C@@H](C)CC)C(=O)O
B4: exendin-4 peptide analogue SEQ ID NO: 32 (peptide)
peptide: Y[Aib]HGTFTSDLSIQK([γGlu-Stearoyl])EKRAAFEFIEWLKNTGPSSGAPPPS-NH2
modifications: N-terminus assumed
SMILES: CCCCCCCCCCCCCCCCCC(=O)N[C@@H](CCC(=O)NCCCC[C@H](NC(=O)[C@H](CCC(N)=O)NC(=O)[C@@H](NC(=O)[C@H](CO)NC(=O)[C@H](CC(C)C)NC(=O)[C@H](CC(=O)O)NC(=O)[C@H](CO)NC(=O)[C@@H](NC(=O)[C@H](Cc1ccccc1)NC(=O)[C@@H](NC(=O)CNC(=O)[C@H](Cc1c[nH]cn1)NC(=O)C(C)(C)NC(=O)[C@@H](N)Cc1ccc(O)cc1)[C@@H](C)O)[C@@H](C)O)[C@@H](C)CC)C(=O)N[C@@H](CCC(=O)O)C(=O)N[C@@H](CCCCN)C(=O)N[C@@H](CCCNC(=N)N)C(=O)N[C@@H](C)C(=O)N[C@@H](C)C(=O)N[C@@H](Cc1ccccc1)C(=O)N[C@@H](CCC(=O)O)C(=O)N[C@@H](Cc1ccccc1)C(=O)N[C@H](C(=O)N[C@@H](CCC(=O)O)C(=O)N[C@@H](Cc1c[nH]c2ccccc12)C(=O)N[C@@H](CC(C)C)C(=O)N[C@@H](CCCCN)C(=O)N[C@@H](CC(N)=O)C(=O)N[C@H](C(=O)NCC(=O)N1CCC[C@H]1C(=O)N[C@@H](CO)C(=O)N[C@@H](CO)C(=O)NCC(=O)N[C@@H](C)C(=O)N1CCC[C@H]1C(=O)N1CCC[C@H]1C(=O)N1CCC[C@H]1C(=O)N[C@@H](CO)C(N)=O)[C@@H](C)O)[C@@H](C)CC)C(=O)O
B5: exendin-4 peptide analogue SEQ ID NO: 31 (peptide)
peptide: Y[Aib]QGTFTSDLSIQK([γGlu-Stearoyl])DEQRAKEFIEWLKAGGPSSGAPPPS-NH2
modifications: N-terminus assumed
SMILES: CCCCCCCCCCCCCCCCCC(=O)N[C@@H](CCC(=O)NCCCC[C@H](NC(=O)[C@H](CCC(N)=O)NC(=O)[C@@H](NC(=O)[C@H](CO)NC(=O)[C@H](CC(C)C)NC(=O)[C@H](CC(=O)O)NC(=O)[C@H](CO)NC(=O)[C@@H](NC(=O)[C@H](Cc1ccccc1)NC(=O)[C@@H](NC(=O)CNC(=O)[C@H](CCC(N)=O)NC(=O)C(C)(C)NC(=O)[C@@H](N)Cc1ccc(O)cc1)[C@@H](C)O)[C@@H](C)O)[C@@H](C)CC)C(=O)N[C@@H](CC(=O)O)C(=O)N[C@@H](CCC(=O)O)C(=O)N[C@@H](CCC(N)=O)C(=O)N[C@@H](CCCNC(=N)N)C(=O)N[C@@H](C)C(=O)N[C@@H](CCCCN)C(=O)N[C@@H](CCC(=O)O)C(=O)N[C@@H](Cc1ccccc1)C(=O)N[C@H](C(=O)N[C@@H](CCC(=O)O)C(=O)N[C@@H](Cc1c[nH]c2ccccc12)C(=O)N[C@@H](CC(C)C)C(=O)N[C@@H](CCCCN)C(=O)N[C@@H](C)C(=O)NCC(=O)NCC(=O)N1CCC[C@H]1C(=O)N[C@@H](CO)C(=O)N[C@@H](CO)C(=O)NCC(=O)N[C@@H](C)C(=O)N1CCC[C@H]1C(=O)N1CCC[C@H]1C(=O)N1CCC[C@H]1C(=O)N[C@@H](CO)C(N)=O)[C@@H](C)CC)C(=O)O
B6: exendin-4 peptide analogue SEQ ID NO: 36 (peptide)
peptide: Y[Aib]QGTFTSDLSIQK([γGlu-Palmitoyl])EKRAAHEFIEWLKNTGPSSGAPPPS-NH2
modifications: N-terminus assumed
SMILES: CCCCCCCCCCCCCCCC(=O)N[C@@H](CCC(=O)NCCCC[C@H](NC(=O)[C@H](CCC(N)=O)NC(=O)[C@@H](NC(=O)[C@H](CO)NC(=O)[C@H](CC(C)C)NC(=O)[C@H](CC(=O)O)NC(=O)[C@H](CO)NC(=O)[C@@H](NC(=O)[C@H](Cc1ccccc1)NC(=O)[C@@H](NC(=O)CNC(=O)[C@H](CCC(N)=O)NC(=O)C(C)(C)NC(=O)[C@@H](N)Cc1ccc(O)cc1)[C@@H](C)O)[C@@H](C)O)[C@@H](C)CC)C(=O)N[C@@H](CCC(=O)O)C(=O)N[C@@H](CCCCN)C(=O)N[C@@H](CCCNC(=N)N)C(=O)N[C@@H](C)C(=O)N[C@@H](C)C(=O)N[C@@H](Cc1c[nH]cn1)C(=O)N[C@@H](CCC(=O)O)C(=O)N[C@@H](Cc1ccccc1)C(=O)N[C@H](C(=O)N[C@@H](CCC(=O)O)C(=O)N[C@@H](Cc1c[nH]c2ccccc12)C(=O)N[C@@H](CC(C)C)C(=O)N[C@@H](CCCCN)C(=O)N[C@@H](CC(N)=O)C(=O)N[C@H](C(=O)NCC(=O)N1CCC[C@H]1C(=O)N[C@@H](CO)C(=O)N[C@@H](CO)C(=O)NCC(=O)N[C@@H](C)C(=O)N1CCC[C@H]1C(=O)N1CCC[C@H]1C(=O)N1CCC[C@H]1C(=O)N[C@@H](CO)C(N)=O)[C@@H](C)O)[C@@H](C)CC)C(=O)O

How the values were obtained:
Test in all cases: cell-based or functional assay
human GLP-1 receptor = human GLP-1 receptor (human, UniProt P43220 24-463)
human GIP receptor = target: T1, human GIP receptor
human glucagon receptor = human glucagon receptor (human, UniProt P47871 26-477)
Chain of human glucagon receptor (P47871 26-477): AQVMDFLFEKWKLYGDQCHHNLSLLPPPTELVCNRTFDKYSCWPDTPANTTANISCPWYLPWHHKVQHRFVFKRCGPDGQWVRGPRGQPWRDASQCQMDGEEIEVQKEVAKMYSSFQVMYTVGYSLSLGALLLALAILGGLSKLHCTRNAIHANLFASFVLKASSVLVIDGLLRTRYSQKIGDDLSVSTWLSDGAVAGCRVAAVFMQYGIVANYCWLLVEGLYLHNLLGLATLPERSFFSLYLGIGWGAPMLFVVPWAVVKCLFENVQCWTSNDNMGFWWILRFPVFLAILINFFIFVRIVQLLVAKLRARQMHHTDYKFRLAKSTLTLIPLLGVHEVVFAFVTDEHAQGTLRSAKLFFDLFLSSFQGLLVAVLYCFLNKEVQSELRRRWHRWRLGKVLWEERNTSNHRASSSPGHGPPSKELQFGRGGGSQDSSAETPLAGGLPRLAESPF

| Binder | EC50 hGLP-1 R (human GLP-1 receptor) [pM] | EC50 hGIP R (human GIP receptor) [pM] | EC50 hGLUC R (human glucagon receptor) [pM] |
| --- | --- | --- | --- |
| B1 | 7.4 | 51.3 | 222 |
| B2 | 3.5 | 18.2 | 123 |
| B3 | 5 | 16.3 | 1450 |
| B4 | 41.7 | 33.5 | 19.2 |
| B5 | 14.8 | 13.1 | 4.1 |
| B6 | 5.2 | 30.1 | 39.5 |
